US9580464B2, “Anti-inflammatory proteins and peptides and methods of preparation and use thereof” (ManukaMed Limited, priority 2012, dated 2017)

Key:
Cathepsin B = Cathepsin B (Bos taurus, UniProt P07688); assay: Cathepsin B digestion of MGO-modified MRJP, native PAGE; format: biochemical; conditions: 37° C.
Description: Cathepsin B working reagent solution was prepared (1:50) from Cathepsin B stock solution in the buffer system containing 100 mM sodium acetate, 2 mM EDTA and 2.5 mM 2-mercaptoethanol, pH 5.0.
Cathepsin digestion was performed on selected samples of SEC fractions. Typically, 10 μl of Cathepsin B working solution was mixed with 20 μl of protein sample and digested at 37° C. for overnight. After hydrolysis, the digests were prepared for native PAGE analysis.
Samples used in the Cathepsin B digestion were: 1) Crude MRJP protein; 2) Desalted fraction (first big peak) of MGO-modified MRJP at pH 4.0 for 9 days sample; 3) Desalted fraction (first big peak) of MGO-modified MRJP in PBS (pH 7.5) for 9 days sample; 4) SEC fractions of pH 5.0 fractions; 5) SEC fractions of reaction 221.
For hydrolysis, 10 μL of a 1 mg/mL solution (10 μg) of Cathepsin B was used. Thus, a very high level of enzyme activity was employed for these experiments. Moreover, the reaction was performed over two days at 37° C. Under these conditions, we expected to see complete or near complete hydrolysis of the MRJP proteins.

[1] = Anti-inflammatory activity of MGO-modified proteins (results not shown)
Text: As used herein, “anti-inflammatory capacity” is defined as the capacity to clinically reduce inflammation or the symptoms of inflammation in cellular tissue. Anti-inflammatory capacity may be determined using the phagocytosis inhibition assay (PIA) described in PCT/NZ PCT/NZ/2011/000271 or the DCFDA assay also described in PCT/NZ/2011/000271 or the anti-inflammatory capacity may also be determined by the inhibition of Cathepsin B as described in detail below.

Row | Hydrolysis by Cathepsin B (Cathepsin B) | Molecule | Anti-inflammatory activity [1]
1 | readily degraded | native hexamer form of MRJP1: unmodified major royal jelly protein 1 (SEQ ID NO: 1), about 300 kDa hexamer (protein, listed as Apis mellifera, native hexamer) MTRLFMLVCLGIVCQGTTGNILRGESLNKSLPILHEWKFFDYDFGSDERRQDAILSGEYDYKNNYPSDIDQWHDKIFVTMLRYNGVPSSLNVISKKVGDGGPLLQPYPDWSFAKYDDCSGIVSASKLAIDKCDRLWVLDSGLVNNTQPMCSPKLLTFDLTTSQLLKQVEIPHDVAVNATTGKGRLSSLAVQSLDCNTNSDTMVYIADEKGEGLIVYHNSDDSFHRLTSNTFDYDPKFTKMTIDGESYTAQDGISGMALSPMTNNLYYSPVASTSLYYVNTEQFRTSDYQQNDIHYEGVQNILDTQSSAKVVSKSGVLFFGLVGDSALGCWNEHRTLERHNIRTVAQSDETLQMIASMKIKEALPHVPIFDRYINREYILVLSNKMQKMVNNDFNFDDVNFRIMNANVNELILNTRCENPDNDRTPFKISIHL | 
2 | readily degraded | monomeric form of royalactin: unmodified monomeric MRJP1 (royalactin) (protein) NILRGESLNKSLPILHEWKFFDYDFGSDERRQDAILSGEYDYKNNYPSDIDQWHDKIFVTMLRYNGVPSSLNVISKKVGDGGPLLQPYPDWSFAKYDDCSGIVSASKLAIDKCDRLWVLDSGLVNNTQPMCSPKLLTFDLTTSQLLKQVEIPHDVAVNATTGKGRLSSLAVQSLDCNTNSDTMVYIADEKGEGLIVYHNSDDSFHRLTSNTFDYDPKFTKMTIDGESYTAQDGISGMALSPMTNNLYYSPVASTSLYYVNTEQFRTSDYQQNDIHYEGVQNILDTQSSAKVVSKSGVLFFGLVGDSALGCWNEHRTLERHNIRTVAQSDETLQMIASMKIKEALPHVPIFDRYINREYILVLSNKMQKMVNNDFNFDDVNFRIMNANVNELILNTRCENPDNDRTPFKISIHL | 
3 |  | MGO-modified MRJP3: major royal jelly protein 3 chemically modified by methylglyoxal (protein, UniProt Q17060 21-544, looked up, methylglyoxal-modified, major royal jelly protein 3 chemically modified by methylglyoxal) Major royal jelly protein 3: AAVNHQRKSANNLAHSMKVIYEWKHIDFDFGSDERRDAAIKSGEFDHTKNYPFDVDRWRDKTFVTIERNNGVPSSLNVVTNKKGKGGPLLRPYPDWSFAKYEDCSGIVSAFKIAVDKFDRLWVLDSGLVNNNQPMCSPKLLTFDLKTSKLVKQVEIPHNIAVNATTGMGELVSLAVQAIDRTNTMVYIADEKGEGLIMYQNSDDSFHRLTSNTFDYDPRYTKLTVAGESFTVKNGIYGIALSPVTNNLYYSPLLSHGLYYVDTEQFSNPQYEENNVQYEGSQDILNTQSFGKVVSKNGVLFLGLVGNSGIACVNEHQVLQRESFDVVAQNEETLQMIVSMKIMENLPQSGRINDPEGNEYMLALSNRMQKIINNDFNFNDVNFRILGANVDDLMRNTRCGRYHNQNAGNQNADNQNADNQNANNQNADNQNANKQNGNRQNDNRQNDNKQNGNRQNDNKQNGNRQNDNKQNGNRQNGNKQNDNKQNGNRQNDNKRNGNRQNDNQNNQNDNNRNDNQVHHSSKLH | enhanced anti-inflammatory properties
